Measurements: PMC1179735

T1: indolicidin (Bos taurus (bovine; synthetic peptide), UniProt P33046)
T1 chain: ILPWKWPWWPWRR

B1: ss[GT] (ssDNA)
DNA: CGTGTGTGTC
B2: ss[AG] (ssDNA)
DNA: CAGAGAGAGT
B3: ss[GC] (ss[CG] in Table 2) (ssDNA)
DNA: CGCGGCGGCT
B4: ss[AT] (ssDNA)
DNA: CATAATATTC

Target: T1, indolicidin
Experiment: SPR

First: B1
Second: B2
The Kd of the first is 21-fold lower: 0.115 mM for the first, 2.44 mM for the second. The first binds more tightly here.

B3 and B4 are within 1.5-fold of each other in Kd: 1.53 mM for the first, 2.09 mM for the second.
